# According to US20190276534A1 (Eli Lilly, published 2019):
# T1: cell surface human Tim-3 on Tim-3 DO11.10 cells (human, UniProt Q8TDQ0 22-301)
# T1 construct: whole, on cells; Also used as the target for the mixed lymphocyte reaction rows, where Tim-3 is on primary human cells; also called Tim-3 D011.10 cells
# T1 sequence (looked up): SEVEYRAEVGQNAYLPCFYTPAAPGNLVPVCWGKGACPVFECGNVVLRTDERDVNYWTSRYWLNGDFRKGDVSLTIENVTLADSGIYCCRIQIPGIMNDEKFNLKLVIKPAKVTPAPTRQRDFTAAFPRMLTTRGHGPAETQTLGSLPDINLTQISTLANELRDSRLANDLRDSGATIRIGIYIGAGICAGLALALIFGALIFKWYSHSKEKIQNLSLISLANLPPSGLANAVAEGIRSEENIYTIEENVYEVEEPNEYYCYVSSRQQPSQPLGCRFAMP
# T2: human Tim-3-Fc (R&D Systems) (human, UniProt Q8TDQ0 22-130, biotinylated in the phosphatidylserine assay; ruthenylated (sulfo-tag NHS-ester) in the galectin-9 assay)
# T2 construct: Bought protein; Supplier is not repeated for the CEACAM1 assay; also called hTIM-3-Fc; hTIM-3-Fc Biotin; not shown: Fc part of the bought fusion protein
# T2 sequence: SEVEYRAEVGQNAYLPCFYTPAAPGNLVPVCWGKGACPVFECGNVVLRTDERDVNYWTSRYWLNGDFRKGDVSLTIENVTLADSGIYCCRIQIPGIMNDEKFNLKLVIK
# T3: human Tim-3-IgV-Fc single arm antigen (SAG) (human)
# T3 construct: Construct is only named; its build is not described; also called Tim-3 SAG; not shown: Fc part; second Fc arm of the single arm antigen; not described
# T3 sequence (Q8TDQ0 whole entry, looked up): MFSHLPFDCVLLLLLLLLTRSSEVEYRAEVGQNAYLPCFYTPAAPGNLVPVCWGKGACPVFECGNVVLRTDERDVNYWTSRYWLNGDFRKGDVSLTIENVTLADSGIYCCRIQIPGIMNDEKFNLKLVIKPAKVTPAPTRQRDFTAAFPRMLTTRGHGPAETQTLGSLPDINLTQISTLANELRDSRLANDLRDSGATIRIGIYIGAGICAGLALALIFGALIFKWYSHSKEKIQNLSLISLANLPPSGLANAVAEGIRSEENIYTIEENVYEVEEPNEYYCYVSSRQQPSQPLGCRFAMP
# T4: hTim-3-IgV-FLAG (human, UniProt Q8TDQ0 22-130, density indicating glycosylation at Asn99)
# T4 construct: Purified from 293HEK supernatant; also called hTim-3-FLAG; human Tim-3 IgV domain; not shown: FLAG tag
# T4 sequence: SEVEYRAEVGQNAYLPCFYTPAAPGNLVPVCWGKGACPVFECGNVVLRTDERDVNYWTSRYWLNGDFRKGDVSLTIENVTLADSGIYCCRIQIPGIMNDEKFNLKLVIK
# How the values were obtained:
# [1] = target: human PD-1 on CHO cells (human, UniProt Q15116 25-288); test: flow cytometry, CHO cells with human PD-1 incubated with antibody 100 nM, then PD-L2-FITC; competitor PD-L2-FITC
# [2] = target: T1, cell surface human Tim-3 on Tim-3 …; test: flow cytometry, A488-labelled antibody on Tim-3 DO11.10 cells
# [3] = target: T2, human Tim-3-Fc (R&D Systems); test: MSD plate competition assay, ruthenylated hTim-3-Fc binding to coated galectin-9-biotin; competitor galectin-9
# [4] = target: T2, human Tim-3-Fc (R&D Systems); test: flow cytometry, blocking of biotinylated hTIM-3-Fc binding to phosphatidylserine on camptothecin-treated DO11.10 cells
# [5] = target: T3, human Tim-3-IgV-Fc single arm antigen …; test: SPR Biacore T100, antibody captured on Human Fab Binder, Tim-3 SAG as analyte, 1:1 Langmuir with mass transport
# [6] = target: T2, human Tim-3-Fc (R&D Systems); test: ELISA, human Tim-3-Fc coated, anti-human IgG F(ab')2-HRP detection
# [7] = target: T4, hTim-3-IgV-FLAG; test: SPR Biacore T200, Fab captured, hTim-3-IgV-FLAG as analyte, HBS-EP, 25 C, 1:1 binding
# Sequence of human PD-1 on CHO cells (Q15116 25-288 limits assumed): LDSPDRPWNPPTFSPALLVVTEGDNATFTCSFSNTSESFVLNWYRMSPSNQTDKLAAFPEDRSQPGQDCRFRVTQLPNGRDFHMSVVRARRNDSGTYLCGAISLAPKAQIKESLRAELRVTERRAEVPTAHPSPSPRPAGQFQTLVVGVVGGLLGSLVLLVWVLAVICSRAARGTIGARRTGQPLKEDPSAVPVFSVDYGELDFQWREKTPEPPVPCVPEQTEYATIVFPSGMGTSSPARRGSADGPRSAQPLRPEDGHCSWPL
binder,measurement,setting,value
"Antibody D in IgG1 format (antibody, V domains shown, IgG1 format, expressed in yeast; also called Antibody D, in IgG1 format and expressed in yeast) VH: QVQLVQSGAEVKKPGSSVKVSCKASGGTFSSYAISWVRQAPGQGLEWMGLIIPMFDTAGYAQKFQGRVAITVDESTSTAYMELSSLRSEDTAVYYCARAEHSSTGTFDYWGQGTLVTVSS VL: DIQMTQSPSSVSASVGDRVTITCRASQGISSWLAWYQQKPGKAPKLLISAASSLQSGVPSRFSGSGSGTDFTLTISSLQPEDFATYYCQQANHLPFTFGGGTKVEIK",MFI (PD-L2-FITC) in presence of the antibody,[1],24700
"Antibody A (anti-Tim-3 Antibody) (antibody, human IgG1, kappa, V domains shown, Full IgG; also called anti-human Tim-3) VH: EVQLLESGGGLVQPGGSLRLSCAASGFTFSSYYMSWVRQAPGKGLEWVSAISGSGGSTYYADSVKGRFTISRDNSKNTLYLQMNSLRAEDTAVYYCARYARTAFDLWGQGTLVTVSS VL: DIVMTQSPSSLSASVGDGVTITCQASQDIYNYLNWYQQKPGKAPKLLIYAASSLQSGVPSRFSGSGSGTDFTLTISSLQPEDFATYYCQQANSFPPTFGQGTKLEIKR",EC50,[2],0.09 nM
same,IC50,[3],5.6 nM
same,IC50,[4],0.32 nM
same,Kd,[5],0.398 nM
same,koff,[5],0.000927 s⁻¹
same,kon,[5],2.33e+06 M⁻¹ s⁻¹
same,EC50,[6],0.0207 nM
"Antibody A-Fab (Fab, V domains shown, Made by clipping Antibody A with immobilized papain; the Fc part was not present in the assay; also called Fab for Antibody A) VH: EVQLLESGGGLVQPGGSLRLSCAASGFTFSSYYMSWVRQAPGKGLEWVSAISGSGGSTYYADSVKGRFTISRDNSKNTLYLQMNSLRAEDTAVYYCARYARTAFDLWGQGTLVTVSS VL: DIVMTQSPSSLSASVGDGVTITCQASQDIYNYLNWYQQKPGKAPKLLIYAASSLQSGVPSRFSGSGSGTDFTLTISSLQPEDFATYYCQQANSFPPTFGQGTKLEIKR",Kd,[7],7.92 nM
same,koff,[7],0.00286 s⁻¹
same,kon,[7],362000 M⁻¹ s⁻¹
